# In patent US20130066054A1 (UCB, published 2013):
# Several values for one entry are separate records, joined by “and”; a condition that tells them apart may be missing. Identical values can stand only once.
# T1: OX40 (UniProt P43489 29-214)
# T1 construct: also called O × 40
# T1 sequence (looked up): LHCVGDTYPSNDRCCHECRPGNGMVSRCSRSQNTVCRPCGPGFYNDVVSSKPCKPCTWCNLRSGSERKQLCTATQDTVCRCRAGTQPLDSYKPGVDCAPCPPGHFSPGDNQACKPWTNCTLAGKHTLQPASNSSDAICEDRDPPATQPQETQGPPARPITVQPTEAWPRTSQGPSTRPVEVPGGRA
# Assays:
# OX40 = biological target: T1, OX40; assay: SPR (Biacore 3000), Fab-dsFv captured, antigen injected, 1:1 fit;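 also: capture antibody amine-coupled on chip, 3 min antigen association then 20 min dissociation, antigen titrated, reference flow-cell and buffer blanks subtracted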
# Procedure: (§1) Covalent immobilisation of the capture antibody was achieved by standard amine coupling chemistry.
# (§2) Each assay cycle consisted of firstly capturing the Fab-dsFv using a 1 min injection, before an association phase consisting of a 3 min injection of antigen, after which dissociation was monitored for 20 min. After each cycle, the capture surface was regenerated with 2×1 min injections of 40 mM HCl followed by 30 s of 5 mM NaOH. The flow rates used were 10 μl/min for capture, 30 μl/min for association and dissociation phases, and 10 μl/min for regeneration.
# (§3) For kinetic assays, a titration of antigen was performed, a blank flow-cell was used for reference subtraction and buffer-blank injections were included to subtract instrument noise and drift.
# human serum albumin = biological target: T2, human serum albumin (human, UniProt P02768 25-609); assay: as above
# T2 construct: also called HSA
# Procedure: as §1, §2, §3
Binder,Kd (OX40),koff (OX40),kon (OX40),Kd (human serum albumin),koff (human serum albumin),kon (human serum albumin)
"A26Fab-(3xG4S)-dsFv645 (bispecific antibody, 645 Fv disulfide between Cys44 of SEQ ID NO 227 and Cys100 of SEQ ID NO 44 (Kabat); both cysteines are already in the letters, Fab-dsFv: anti-OX40 A26 Fab with the anti-HSA 645 disulfide-stabilised Fv at the C-termini; The asterisk of 'A26-645std*' is not explained; also called A26-645std; A26-645std*) heavy: EVQLVESGGGLVQPGGSLRLSCAASGFTFTNYGIHWIRQAPGKGLEWVASISPSGGLTYYRDSVKGRFTISRDDAKNSPYLQMNSLRAEDTAVYYCATGGEGIFDYWGQGTLVTVSSASTKGPSVFPLAPSSKSTSGGTAALGCLVKDYFPEPVTVSWNSGALTSGVHTFPAVLQSSGLYSLSSVVTVPSSSLGTQTYICNVNHKPSNTKVDKKVEPKSCSGGGGSGGGGSGGGGSEVQLLESGGGLVQPGGSLRLSCAVSGIDLSNYAINWVRQAPGKCLEWIGIIWASGTTFYATWAKGRFTISRDSTTVYLQMNSLRAEDTAVYYCARTVPGYSTAPYFDLWGQGTLVTVSS light: DIQMTQSPSSLSASVGDRVTITCRATQSIYNALAWYQQKPGKAPKLLIYNANTLHTGVPSRFSASGSGTDSTLTISSLQPEDFATYYCQQYYDYPLTFGGGTKVEIKRTVAAPSVFIFPPSDEQLKSGTASVVCLLNNFYPREAKVQWKVDNALQSGNSQESVTEQDSKDSTYSLSSTLTLSKADYEKHKVYACEVTHQGLSSPVTKSFNRGECSGGGGSGGGGSGGGGSDIVMTQSPSSVSASVGDRVTITCQSSPSVWSNFLSWYQQKPGKAPKLLIYEASKLTSGVPSRFKGSGSGTDFTLTISSLQPEDFATYYCGGGYSSISDTTFGCGTKVEIK",328 pM and 330 pM and 463 pM and 460 pM,0.000149 s⁻¹ and 0.000191 s⁻¹,452000 M⁻¹ s⁻¹ and 413000 M⁻¹ s⁻¹,3570 pM and 4110 pM,0.000461 s⁻¹ and 0.000421 s⁻¹,129000 M⁻¹ s⁻¹ and 103000 M⁻¹ s⁻¹
"A26-645 Cys233Ser H (bispecific antibody, 645 Fv disulfide between Cys44 of SEQ ID NO 227 and Cys100 of SEQ ID NO 44 (Kabat); both cysteines are already in the letters, Control mutant of A26-645 without the heavy chain's interchain cysteine (Kabat numbering); also called C233S CH1; mutation 5) heavy: EVQLVESGGGLVQPGGSLRLSCAASGFTFTNYGIHWIRQAPGKGLEWVASISPSGGLTYYRDSVKGRFTISRDDAKNSPYLQMNSLRAEDTAVYYCATGGEGIFDYWGQGTLVTVSSASTKGPSVFPLAPSSKSTSGGTAALGCLVKDYFPEPVTVSWNSGALTSGVHTFPAVLQSSGLYSLSSVVTVPSSSLGTQTYICNVNHKPSNTKVDKKVEPKSSSGGGGSGGGGSGGGGSEVQLLESGGGLVQPGGSLRLSCAVSGIDLSNYAINWVRQAPGKCLEWIGIIWASGTTFYATWAKGRFTISRDSTTVYLQMNSLRAEDTAVYYCARTVPGYSTAPYFDLWGQGTLVTVSS light: DIQMTQSPSSLSASVGDRVTITCRATQSIYNALAWYQQKPGKAPKLLIYNANTLHTGVPSRFSASGSGTDSTLTISSLQPEDFATYYCQQYYDYPLTFGGGTKVEIKRTVAAPSVFIFPPSDEQLKSGTASVVCLLNNFYPREAKVQWKVDNALQSGNSQESVTEQDSKDSTYSLSSTLTLSKADYEKHKVYACEVTHQGLSSPVTKSFNRGECSGGGGSGGGGSGGGGSDIVMTQSPSSVSASVGDRVTITCQSSPSVWSNFLSWYQQKPGKAPKLLIYEASKLTSGVPSRFKGSGSGTDFTLTISSLQPEDFATYYCGGGYSSISDTTFGCGTKVEIK",270 pM,0.000124 s⁻¹,461000 M⁻¹ s⁻¹,1760 pM,0.000275 s⁻¹,157000 M⁻¹ s⁻¹
"A26-645 Cys214Ser K (bispecific antibody, 645 Fv disulfide between Cys44 of SEQ ID NO 227 and Cys100 of SEQ ID NO 44 (Kabat); both cysteines are already in the letters, Control mutant of A26-645 without the light chain's interchain cysteine (Kabat numbering); also called C214S CK; mutation 13) heavy: EVQLVESGGGLVQPGGSLRLSCAASGFTFTNYGIHWIRQAPGKGLEWVASISPSGGLTYYRDSVKGRFTISRDDAKNSPYLQMNSLRAEDTAVYYCATGGEGIFDYWGQGTLVTVSSASTKGPSVFPLAPSSKSTSGGTAALGCLVKDYFPEPVTVSWNSGALTSGVHTFPAVLQSSGLYSLSSVVTVPSSSLGTQTYICNVNHKPSNTKVDKKVEPKSCSGGGGSGGGGSGGGGSEVQLLESGGGLVQPGGSLRLSCAVSGIDLSNYAINWVRQAPGKCLEWIGIIWASGTTFYATWAKGRFTISRDSTTVYLQMNSLRAEDTAVYYCARTVPGYSTAPYFDLWGQGTLVTVSS light: DIQMTQSPSSLSASVGDRVTITCRATQSIYNALAWYQQKPGKAPKLLIYNANTLHTGVPSRFSASGSGTDSTLTISSLQPEDFATYYCQQYYDYPLTFGGGTKVEIKRTVAAPSVFIFPPSDEQLKSGTASVVCLLNNFYPREAKVQWKVDNALQSGNSQESVTEQDSKDSTYSLSSTLTLSKADYEKHKVYACEVTHQGLSSPVTKSFNRGESSGGGGSGGGGSGGGGSDIVMTQSPSSVSASVGDRVTITCQSSPSVWSNFLSWYQQKPGKAPKLLIYEASKLTSGVPSRFKGSGSGTDFTLTISSLQPEDFATYYCGGGYSSISDTTFGCGTKVEIK",278 pM and 280 pM,0.000122 s⁻¹,437000 M⁻¹ s⁻¹,1700 pM,0.000282 s⁻¹,166000 M⁻¹ s⁻¹
"A26-645 Asn210Cys K (bispecific antibody, 645 Fv disulfide between Cys44 of SEQ ID NO 227 and Cys100 of SEQ ID NO 44 (Kabat); both cysteines are already in the letters, Surface cysteine mutant of A26-645 (Kabat numbering); also called N210C CK; mutation 12) heavy: EVQLVESGGGLVQPGGSLRLSCAASGFTFTNYGIHWIRQAPGKGLEWVASISPSGGLTYYRDSVKGRFTISRDDAKNSPYLQMNSLRAEDTAVYYCATGGEGIFDYWGQGTLVTVSSASTKGPSVFPLAPSSKSTSGGTAALGCLVKDYFPEPVTVSWNSGALTSGVHTFPAVLQSSGLYSLSSVVTVPSSSLGTQTYICNVNHKPSNTKVDKKVEPKSCSGGGGSGGGGSGGGGSEVQLLESGGGLVQPGGSLRLSCAVSGIDLSNYAINWVRQAPGKCLEWIGIIWASGTTFYATWAKGRFTISRDSTTVYLQMNSLRAEDTAVYYCARTVPGYSTAPYFDLWGQGTLVTVSS light: DIQMTQSPSSLSASVGDRVTITCRATQSIYNALAWYQQKPGKAPKLLIYNANTLHTGVPSRFSASGSGTDSTLTISSLQPEDFATYYCQQYYDYPLTFGGGTKVEIKRTVAAPSVFIFPPSDEQLKSGTASVVCLLNNFYPREAKVQWKVDNALQSGNSQESVTEQDSKDSTYSLSSTLTLSKADYEKHKVYACEVTHQGLSSPVTKSFCRGECSGGGGSGGGGSGGGGSDIVMTQSPSSVSASVGDRVTITCQSSPSVWSNFLSWYQQKPGKAPKLLIYEASKLTSGVPSRFKGSGSGTDFTLTISSLQPEDFATYYCGGGYSSISDTTFGCGTKVEIK",229 pM and 230 pM,0.000111 s⁻¹,483000 M⁻¹ s⁻¹,1600 pM,0.000284 s⁻¹,178000 M⁻¹ s⁻¹
"A26-645 Glu143Cys K (bispecific antibody, Surface cysteine mutant of A26-645 (Kabat numbering); also called E143C CK; mutation 8) heavy: EVQLVESGGGLVQPGGSLRLSCAASGFTFTNYGIHWIRQAPGKGLEWVASISPSGGLTYYRDSVKGRFTISRDDAKNSPYLQMNSLRAEDTAVYYCATGGEGIFDYWGQGTLVTVSSASTKGPSVFPLAPSSKSTSGGTAALGCLVKDYFPEPVTVSWNSGALTSGVHTFPAVLQSSGLYSLSSVVTVPSSSLGTQTYICNVNHKPSNTKVDKKVEPKSCSGGGGSGGGGSGGGGSEVQLLESGGGLVQPGGSLRLSCAVSGIDLSNYAINWVRQAPGKCLEWIGIIWASGTTFYATWAKGRFTISRDSTTVYLQMNSLRAEDTAVYYCARTVPGYSTAPYFDLWGQGTLVTVSS light: DIQMTQSPSSLSASVGDRVTITCRATQSIYNALAWYQQKPGKAPKLLIYNANTLHTGVPSRFSASGSGTDSTLTISSLQPEDFATYYCQQYYDYPLTFGGGTKVEIKRTVAAPSVFIFPPSDEQLKSGTASVVCLLNNFYPRCAKVQWKVDNALQSGNSQESVTEQDSKDSTYSLSSTLTLSKADYEKHKVYACEVTHQGLSSPVTKSFNRGECSGGGGSGGGGSGGGGSDIVMTQSPSSVSASVGDRVTITCQSSPSVWSNFLSWYQQKPGKAPKLLIYEASKLTSGVPSRFKGSGSGTDFTLTISSLQPEDFATYYCGGGYSSISDTTFGCGTKVEIK",325 pM and 330 pM,0.000155 s⁻¹,477000 M⁻¹ s⁻¹,2200 pM,0.000337 s⁻¹,153000 M⁻¹ s⁻¹
"A26-645 Lys145Cys K (bispecific antibody, Surface cysteine mutant of A26-645 (Kabat numbering); also called K145C CK; mutation 9) heavy: EVQLVESGGGLVQPGGSLRLSCAASGFTFTNYGIHWIRQAPGKGLEWVASISPSGGLTYYRDSVKGRFTISRDDAKNSPYLQMNSLRAEDTAVYYCATGGEGIFDYWGQGTLVTVSSASTKGPSVFPLAPSSKSTSGGTAALGCLVKDYFPEPVTVSWNSGALTSGVHTFPAVLQSSGLYSLSSVVTVPSSSLGTQTYICNVNHKPSNTKVDKKVEPKSCSGGGGSGGGGSGGGGSEVQLLESGGGLVQPGGSLRLSCAVSGIDLSNYAINWVRQAPGKCLEWIGIIWASGTTFYATWAKGRFTISRDSTTVYLQMNSLRAEDTAVYYCARTVPGYSTAPYFDLWGQGTLVTVSS light: DIQMTQSPSSLSASVGDRVTITCRATQSIYNALAWYQQKPGKAPKLLIYNANTLHTGVPSRFSASGSGTDSTLTISSLQPEDFATYYCQQYYDYPLTFGGGTKVEIKRTVAAPSVFIFPPSDEQLKSGTASVVCLLNNFYPREACVQWKVDNALQSGNSQESVTEQDSKDSTYSLSSTLTLSKADYEKHKVYACEVTHQGLSSPVTKSFNRGECSGGGGSGGGGSGGGGSDIVMTQSPSSVSASVGDRVTITCQSSPSVWSNFLSWYQQKPGKAPKLLIYEASKLTSGVPSRFKGSGSGTDFTLTISSLQPEDFATYYCGGGYSSISDTTFGCGTKVEIK",241 pM and 240 pM,0.00011 s⁻¹,457000 M⁻¹ s⁻¹,1890 pM,0.000259 s⁻¹,137000 M⁻¹ s⁻¹
"A26-645 Lys107Cys K (bispecific antibody, Surface cysteine mutant of A26-645 in the 645 Fv light domain (Kabat numbering); also called K107C 645 Fv light; mutation 15) heavy: EVQLVESGGGLVQPGGSLRLSCAASGFTFTNYGIHWIRQAPGKGLEWVASISPSGGLTYYRDSVKGRFTISRDDAKNSPYLQMNSLRAEDTAVYYCATGGEGIFDYWGQGTLVTVSSASTKGPSVFPLAPSSKSTSGGTAALGCLVKDYFPEPVTVSWNSGALTSGVHTFPAVLQSSGLYSLSSVVTVPSSSLGTQTYICNVNHKPSNTKVDKKVEPKSCSGGGGSGGGGSGGGGSEVQLLESGGGLVQPGGSLRLSCAVSGIDLSNYAINWVRQAPGKCLEWIGIIWASGTTFYATWAKGRFTISRDSTTVYLQMNSLRAEDTAVYYCARTVPGYSTAPYFDLWGQGTLVTVSS light: DIQMTQSPSSLSASVGDRVTITCRATQSIYNALAWYQQKPGKAPKLLIYNANTLHTGVPSRFSASGSGTDSTLTISSLQPEDFATYYCQQYYDYPLTFGGGTKVEIKRTVAAPSVFIFPPSDEQLKSGTASVVCLLNNFYPREAKVQWKVDNALQSGNSQESVTEQDSKDSTYSLSSTLTLSKADYEKHKVYACEVTHQGLSSPVTKSFNRGECSGGGGSGGGGSGGGGSDIVMTQSPSSVSASVGDRVTITCQSSPSVWSNFLSWYQQKPGKAPKLLIYEASKLTSGVPSRFKGSGSGTDFTLTISSLQPEDFATYYCGGGYSSISDTTFGCGTKVEIC",234 pM and 230 pM,0.00012 s⁻¹,515000 M⁻¹ s⁻¹,2280 pM,0.000342 s⁻¹,150000 M⁻¹ s⁻¹
